Test results reported in publication PMC5027247, “Structural insights into the interaction and disease mechanism of neurodegenerative disease-associated optineurin and TBK1 proteins” (Nature Communications, 2016).
Where a chain is given by its changes, count along the chain named. In names and notes the source's numbering stands.

B1: OPTN(1–119) E50K mutant (domain or fragment, human, UniProt Q96CV9 1-119, looked up)
chain: MSHQPLSCLTEKEDSPSESTGNGPPHLAHPNLDTFTPEELLQQMKELLTKNHQLKEAMKLNNQAMKGRFEELSAWTEKQKEERQFFEIQSKEAKERLMALSHENEKLKEELGKLKGKSE
notes: not shown: Trx-His6 (pET-32M) or GST (pET-GST), N-terminal, cleaved
B2: Trx-His-tagged TBK1 CTD (residues 677–729) (domain or fragment, human, UniProt Q9UHD2 677-729, looked up)
chain: YPSSNTLVEMTLGMKKLKEEMEGVVKELAENNHILERFGSLTMDGGLRNVDCL
notes: source: E. coli BL21 (DE3), purified (Ni-NTA, size-exclusion chromatography); not shown: Trx, N-terminal, kept; His6, N-terminal, kept
B3: TBK1 CTD (residues 677–729) (domain or fragment, human, UniProt Q9UHD2 677-729, looked up)
chain: B2 chain
notes: For the crystal with NAP1 TBD it was made as a NAP1(215–254)-TEV site-TBK1 CTD fusion that was cut with 3C and TEV; not shown: Trx-His6 (pET-32M) or GST (pET-GST), N-terminal, cleaved
B4: TBK1 CTD(E696K) (domain or fragment, human, UniProt Q9UHD2 677-729, looked up)
chain: B2 chain with E20K
notes: also called TBK1 E696K mutant; not shown: Trx-His6 (pET-32M) or GST (pET-GST), N-terminal, cleaved
B5: NAP1 TBD (residues 215–254) (domain or fragment, human, UniProt Q9H6S1 215-254, looked up)
chain: SSDNMQHAYWELKREMSNLHLVTQVQAELLRKLKTSTAIK
notes: For the crystal it was made as a NAP1(215–254)-TEV site-TBK1 CTD fusion that was cut with 3C and TEV; also called NAP1(215–254); not shown: Trx-His6 (pET-32M) or GST (pET-GST), N-terminal, cleaved
B6: OPTN(26–103) (domain or fragment, human, UniProt Q96CV9 26-103, looked up)
chain: HLAHPNLDTFTPEELLQQMKELLTENHQLKEAMKLNNQAMKGRFEELSAWTEKQKEERQFFEIQSKEAKERLMALSHE
notes: Forms a dimer in the crystal of the complex with TBK1 CTD; also called short OPTN fragment; not shown: Trx-His6 (pET-32M) or GST (pET-GST), N-terminal, cleaved
B7: OPTN(26–103) E50K (domain or fragment, human, UniProt Q96CV9 26-103, looked up)
chain: B6 chain with E25K
notes: as for B1

Experiments:
[1] = target: the molecule itself; experiment: SEC-MALS; 100 μl at 20 μM on Superose 12 10/300 GL; 50 mM Tris-HCl, 100 mM NaCl, 1 mM DTT, 1 mM EDTA, pH 7.5
[2] = target: T1, GST-tagged OPTN(26–119) L54Q (human, UniProt Q96CV9 26-119, L54Q); experiment: pull-down; GST-tagged OPTN and Trx-His-tagged TBK1 mixed at 1:4, glutathione sepharose 4B beads; 50 mM Tris pH 7.5, 100 mM NaCl, 1 mM DTT, 1 mM EDTA; Coomassie or anti-His blot; details: both partners purified
T1 construct: source: E. coli BL21 (DE3), purified (glutathione sepharose 4B, size-exclusion chromatography); not shown: GST, N-terminal, kept

[3] = target: T2, GST-tagged OPTN(26–119) L47Q (human, UniProt Q96CV9 26-119, L47Q); experiment: as above; details: both partners purified
T2 construct: source: E. coli BL21 (DE3), purified (glutathione sepharose 4B, size-exclusion chromatography); not shown: GST, N-terminal, kept

[4] = target: T3, GST-tagged OPTN(26–119) M44Q (human, UniProt Q96CV9 26-119, M44Q); experiment: as above; details: both partners purified
T3 construct: source: E. coli BL21 (DE3), purified (glutathione sepharose 4B, size-exclusion chromatography); not shown: GST, N-terminal, kept

[5] = target: the molecule itself; experiment: crystal structure; NAP1 TBD/TBK1 CTD complex made as a fusion through a TEV site and cut with 3C and TEV; 1% tryptone, 0.05 M HEPES pH 7.0, 12% PEG 3350, 16 °C; 1.5 Å
[6] = target: T4, OPTN(1–119) (human, UniProt Q96CV9 1-119); experiment: ITC; 25 °C; 50 mM Tris pH 7.5, 100 mM NaCl, 1 mM EDTA, 1 mM DTT; 1 mM TBK1 fragment in the syringe, 0.1 mM OPTN or NAP1 fragment in the cell; one-site binding model; details: both partners purified
T4 construct: not shown: Trx-His6 (pET-32M) or GST (pET-GST), N-terminal, cleaved

[7] = target: T5, OPTN(26–119) (human, UniProt Q96CV9 26-119); experiment: as above; details: both partners purified
T5 construct: A Se-Met labelled form was used for the 2.5 Å crystal structure with TBK1 CTD; also called OPTN NTD; not shown: Trx-His6 (pET-32M) or GST (pET-GST), N-terminal, cleaved

[8] = target: T6, OPTN(26–119) E50K (human, UniProt Q96CV9 26-119, E50K); experiment: as above; details: both partners purified
T6 construct: also called OPTN E50K mutant; not shown: Trx-His6 (pET-32M) or GST (pET-GST), N-terminal, cleaved

[9] = target: B3; experiment: as above; details: both partners purified
[10] = target: B4; experiment: as above; details: both partners purified
[11] = target: the molecule itself; experiment: crystal structure; OPTN(26–103) or OPTN(26–103) E50K with TBK1 CTD; 0.1 M MES pH 6.0, 14% PEG 4000, 16 °C; 2.05 Å and 2.5 Å

T4 sequence (Q96CV9 1-119): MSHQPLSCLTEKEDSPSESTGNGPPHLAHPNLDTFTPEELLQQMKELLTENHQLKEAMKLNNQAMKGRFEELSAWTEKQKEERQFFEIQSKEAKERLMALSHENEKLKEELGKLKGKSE

Binder: B1
- stoichiometry N [1]: 4

Binder: B2
- binding result [2]: binds
- binding result [3]: binds
- binding result [4]: binds

Binder: B3
- binding result [5]: binds
- Kd [6]: ~2500 nM
- Kd [7]: ~2500 nM
- stoichiometry N [7]: 1.15
- fold increase of binding affinity against the wild-type OPTN [8]: ~43 fold

Binder: B4
- stoichiometry N [7]: 0.58

Binder: B5
- Kd [9]: ~720 nM
- binding result [10]: binds

Binder: B6
- binding result [11]: binds

Binder: B7
- binding result [11]: binds
